How the values were obtained:
[1] = tested on: NbGlk1(83-402) (Nicotiana benthamiana); experiment: fluorescence anisotropy; settings: DNA annealed in 150 mM NaCl, 15 mM Na citrate, binding buffer, pH and temperature not given in the material
[2] = biological target: NbGlk1(83–402) (N. benthamiana (from the prefix Nb)); experiment: SEC; purified recombinant proteins run alone and after co-incubation; peak fractions visualised by SDS-PAGE
[3] = biological target: NbDBCP-T (amino acids 1–414 of NbDBCP) (Nicotiana benthamiana); experiment: SEC; NbDBCP-T alone; approximate molecular weight by gel filtration chromatography

| Substance | Kd ([1]; NbGlk1 alone) | Kd ([1]; with NbDBCP-T (1-414)) | left:right ratio of NbDBCP within the 12-mL elution volume (densitometry; 1.37 for NbDBCP-T alone) [2] | stoichiometry N [3] |
| --- | --- | --- | --- | --- |
| CGGATATCCACGGATATCCACGGATATCCACGGATATCCACGGATATCCC (double strand) [FA-5/FA-6 concatenated GGATATCC GLK site duplex] | 110 nM | 160 nM |  |  |
| NbDBCP-T (amino acids 1–414 of NbDBCP) (domain or fragment) |  |  | 1.6 | 2 |

From publication PMC7371201
